This assay deals with mouse. The experiment in a line: suppression of immune response by oral tolerance. The format is in vivo. To be noted: administered orally to a mouse. The source says: As for a method for suppressing antigen-specific immune response, various methods have been already reported. […] Therefore, they tried to suppress the anti-Dsg3 antibody generation in Dsg3^+/+ graft strain by inhibiting the binding of CD40 and CD40L, which are playing an important role to the establishment of immune response. CD40L is a type II cell membrane-penetrating protein, expressed transiently in activated T cells having received antigen stimulation and CD40, its receptor, is expressed in B cells, dendritic cells, monocyte/macrophage, endothelial cells and the like. The CD40-CD40L binding not only plays an important role in cellular immunity by promoting cytokine production and the like, but it is clarified to be quite important for proliferation of B cells, antibody production and the like. Thus, attempts have been made to suppress immune response in autoimmune diseases, organ transplantation and the like by using anti-CD40L monoclonal antibody inhibiting this binding. As mentioned above, in Dsg3^+/+ graft strain, anti-Dsg3 IgG antibody generation, which is detected in serum by ELISA method, is observed approximately two weeks after skin graft, in all mice that underwent skin graft.

B1: Dsg3 protein: Dsg3 protein prepared with the use of E. Coli expression vector, administered orally (protein, UniProt P32926 50-999, looked up)
Desmoglein-3: EWVKFAKPCREGEDNSKRNPIAKITSDYQATQKITYRISGVGIDQPPFGIFVVDKNTGDINITAIVDREETPSFLITCRALNAQGLDVEKPLILTVKILDINDNPPVFSQQIFMGEIEENSASNSLVMILNATDADEPNHLNSKIAFKIVSQEPAGTPMFLLSRNTGEVRTLTNSLDREQASSYRLVVSGADKDGEGLSTQCECNIKVKDVNDNFPMFRDSQYSARIEENILSSELLRFQVTDLDEEYTDNWLAVYFFTSGNEGNWFEIQTDPRTNEGILKVVKALDYEQLQSVKLSIAVKNKAEFHQSVISRYRVQSTPVTIQVINVREGIAFRPASKTFTVQKGISSKKLVDYILGTYQAIDEDTNKAASNVKYVMGRNDGGYLMIDSKTAEIKFVKNMNRDSTFIVNKTITAEVLAIDEYTGKTSTGTVYVRVPDFNDNCPTAVLEKDAVCSSSPSVVVSARTLNNRYTGPYTFALEDQPVKLPAVWSITTLNATSALLRAQEQIPPGVYHISLVLTDSQNNRCEMPRSLTLEVCQCDNRGICGTSYPTTSPGTRYGRPHSGRLGPAAIGLLLLGLLLLLLAPLLLLTCDCGAGSTGGVTGGFIPVPDGSEGTIHQWGIEGAHPEDKEITNICVPPVTANGADFMESSEVCTNTYARGTAVEGTSGMEMTTKLGAATESGGAAGFATGTVSGAASGFGAATGVGICSSGQSGTMRTRHSTGGTNKDYADGAISMNFLDSYFSQKAFACAEEDDGQEANDCLLIYDNEGADATGSPVGSVGCCSFIADDLDDSFLDSLGPKFKKLAEISLGVDGEGKEVQPPSKDSGYGIESCGHPIEVQQTGFVKCQTLSGSQGASALSTSGSVQPAVSIPDPLQHGNYLVTETYSASGSLVQPSTAGFDPLLTQNVIVTERVICPISSVPGNLAGPTQLRGSHTMLCTEDPCSRLI
With B1, the “suppression of immune response by oral tolerance” value is given as “failed to obtain successful results”.

Values taken from patent US20050182003A1, “Drugs to be used in gene therapy for recessively transmitted genetic disease” (priority 2002, published 2005).
